Assay [1] has as its target T1, FLAG-MCM5 (K583R), expressed in HeLa cells (human, UniProt P33992 1-734, K583R).
T1 construct: human MCM5, full-length cDNA in a pcDNA3.0 3XFLAG vector, point mutation K583R (UFMylation-resistant); also called KR; Lys583Arg; source: HeLa, transfected; in fixed cells (PLA) and in the chromatin fraction (IP)
T1 sequence (looked up): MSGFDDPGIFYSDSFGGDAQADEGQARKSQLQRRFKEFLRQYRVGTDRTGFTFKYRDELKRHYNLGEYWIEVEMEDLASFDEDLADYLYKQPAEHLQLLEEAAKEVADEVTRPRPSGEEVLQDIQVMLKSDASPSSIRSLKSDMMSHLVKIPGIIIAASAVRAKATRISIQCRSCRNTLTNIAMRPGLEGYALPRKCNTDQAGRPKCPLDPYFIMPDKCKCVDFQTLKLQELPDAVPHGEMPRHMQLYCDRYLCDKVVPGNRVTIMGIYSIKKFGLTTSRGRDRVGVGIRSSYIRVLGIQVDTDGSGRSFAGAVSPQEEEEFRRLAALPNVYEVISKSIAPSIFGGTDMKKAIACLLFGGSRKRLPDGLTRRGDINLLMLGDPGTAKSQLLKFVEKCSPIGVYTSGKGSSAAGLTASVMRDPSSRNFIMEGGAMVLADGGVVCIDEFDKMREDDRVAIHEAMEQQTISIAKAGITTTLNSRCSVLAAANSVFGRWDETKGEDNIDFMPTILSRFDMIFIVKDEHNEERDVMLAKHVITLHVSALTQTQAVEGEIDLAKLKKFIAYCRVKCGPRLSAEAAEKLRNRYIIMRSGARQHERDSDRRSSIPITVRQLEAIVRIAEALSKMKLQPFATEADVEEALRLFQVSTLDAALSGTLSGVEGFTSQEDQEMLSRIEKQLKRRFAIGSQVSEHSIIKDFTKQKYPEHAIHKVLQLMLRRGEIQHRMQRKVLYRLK
The assay is described as follows: proximity ligation; HeLa cells transfected with FLAG-VEC, FLAG-MCM5 (WT) or FLAG-MCM5 (K583R), 1 h after release from double-thymidine block; PLA with CDC45. Conditions: partners not purified.

Assay [2] concerns the target T2, His-UFL1 (UniProt O94874 1-794).
T2 construct: UFL1; construct pet28a-UFL1; also called pet28a-UFL1; source: E. coli BL21, purified (Ni-NTA agarose)
T2 sequence (looked up): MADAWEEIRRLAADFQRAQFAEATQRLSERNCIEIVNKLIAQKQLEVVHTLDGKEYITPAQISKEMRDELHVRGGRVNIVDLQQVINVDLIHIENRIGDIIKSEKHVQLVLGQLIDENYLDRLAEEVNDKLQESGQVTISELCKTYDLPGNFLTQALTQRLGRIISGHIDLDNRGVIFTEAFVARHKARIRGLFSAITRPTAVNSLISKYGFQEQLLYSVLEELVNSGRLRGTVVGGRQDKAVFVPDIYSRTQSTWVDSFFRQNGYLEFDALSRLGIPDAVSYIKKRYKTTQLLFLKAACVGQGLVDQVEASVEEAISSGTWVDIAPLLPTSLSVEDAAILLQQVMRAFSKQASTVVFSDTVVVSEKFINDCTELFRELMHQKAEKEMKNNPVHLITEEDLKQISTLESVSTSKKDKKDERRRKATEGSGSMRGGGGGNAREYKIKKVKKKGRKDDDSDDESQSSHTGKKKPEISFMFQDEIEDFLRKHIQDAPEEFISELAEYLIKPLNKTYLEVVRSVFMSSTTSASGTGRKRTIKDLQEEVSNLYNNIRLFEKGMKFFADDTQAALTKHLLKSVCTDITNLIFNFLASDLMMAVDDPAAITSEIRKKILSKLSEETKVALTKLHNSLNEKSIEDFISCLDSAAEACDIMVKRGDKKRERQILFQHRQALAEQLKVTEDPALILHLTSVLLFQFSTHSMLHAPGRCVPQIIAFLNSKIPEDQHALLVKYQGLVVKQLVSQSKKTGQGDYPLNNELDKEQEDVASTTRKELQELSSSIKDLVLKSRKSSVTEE
The assay is described as follows: pull-down; GST pull-down in vitro with purified GST-MCM5 and His-UFL1; bead-associated proteins analysed by western blot. Conditions: both partners purified. Background: In western blotting, separated proteins are transferred to a membrane and probed.

Where a chain is given by its changes, count along the chain named.

B1: CDC45 (endogenous, HeLa) (natural protein, human (endogenous in HeLa), UniProt O75419 1-566, looked up)
chain: MFVSDFRKEFYEVVQSQRVLLFVASDVDALCACKILQALFQCDHVQYTLVPVSGWQELETAFLEHKEQFHYFILINCGANVDLLDILQPDEDTIFFVCDTHRPVNVVNVYNDTQIKLLIKQDDDLEVPAYEDIFRDEEEDEEHSGNDSDGSEPSEKRTRLEEEIVEQTMRRRQRREWEARRRDILFDYEQYEYHGTSSAMVMFELAWMLSKDLNDMLWWAIVGLTDQWVQDKITQMKYVTDVGVLQRHVSRHNHRNEDEENTLSVDCTRISFEYDLRLVLYQHWSLHDSLCNTSYTAARFKLWSVHGQKRLQEFLADMGLPLKQVKQKFQAMDISLKENLREMIEESANKFGMKDMRVQTFSIHFGFKHKFLASDVVFATMSLMESPEKDGSGTDHFIQALDSLSRSNLDKLYHGLELAKKQLRATQQTIASCLCTNLVISQGPFLYCSLMEGTPDVMLFSRPASLSLLSKHLLKSFVCSTKNRRCKLLPLVMAAPLSMEHGTVTVVGIPPETDSSDRKNFFGRAFEKAAESTSSRMLHNHFDLSVIELKAEDRSKFLDALISLLS
notes: CDC45 (cell division cycle 45), endogenous in HeLa; also called cell division cycle 45; source: endogenous, HeLa (fixed cells for PLA; chromatin fraction)
On to B1, for which the “fold decrease in PLA foci per cell against WT MCM5” value in assay [1] is 4 fold.

B2: GST-MCM5 (natural protein, human, UniProt P33992 1-734, looked up)
chain: T1 sequence (looked up) with R583K
notes: human MCM5 in pGEX-4T-1; the GST construct is probably the same insert; also called pGEX-4T-1 MCM5; WT GST-MCM5; source: E. coli BL21, purified (Glutathione-Sepharose 4B)
Regarding B2, in assay [2], the binding result is “binds”.
